Results reported in paper PMC8536012, “Selection of Specific Nanobodies against Lupine Allergen Lup an 1 for Immunoassay Development” (Foods, 2021).

B1: Nb B157 (His- and HA-tagged) (VHH)
VHH: QVQLQESGGGLVQAGGSLRLSCEASGRTNTKYAWGWFRQAPGKEREFVASINWSGTLINYADSVKGRFTISRDDAKNTVYLEMSSLRPEDTAVYSCAVRYYTGTYYYTTSPDNYKHWAQGTQVTVSS
notes: also called Nb157; source: E. coli WK6 (pMECS), periplasmic, purified (IMAC, SEC)
B2: Nb B50 (His- and HA-tagged) (VHH)
VHH: QVQLQESGGGLVQAEGSLRLSCTVSGRTFSRDAMGWFRRPPGKEREFVAAISWNGASTSYADSVKGRFTVSRDNAKNTSLLQMNSLKPEDTAVYYCATYWSSAIPPLAAATSATYWGQGTQVTVSS
notes: also called Nb50; source: E. coli WK6 (pMECS), periplasmic, purified (IMAC, SEC)
B3: Nb B163 (His- and HA-tagged) (VHH)
VHH: QVQLQESGGGLAQAGGSLTLSCAASGRTFSIPTMGWFRQAPGKEREFVAAIGRTTAYTGSVKGRFTISRDSAKNTVSLQMNSLNIEDTGVYYCASSQSPWSSPPLTENMYAYWGQGTQVTVSS
notes: also called Nb163; source: E. coli WK6 (pMECS), periplasmic, purified (IMAC, SEC)
B4: Nb B167 (His- and HA-tagged) (VHH)
VHH: QVQLQESGGGLVQAGGSLRLSCAASRRTSRNYDMTWFRQFPGTEREFVAFISWGGSRIYYADSVKGRFTISRDNAKDTVYLQMNSLKPEDTAVYYCAADPRLVRGRYESDYWGQGTQVTVSS
notes: also called Nb167; source: E. coli WK6 (pMECS), periplasmic, purified (IMAC, SEC)
B5: Nb B66 (His- and HA-tagged) (VHH)
VHH: QVQLQESGGGLVQAGGSLRLSCAASGRTFSSYGIGWFRQAPGKEREFVASISWSGGSTYYADSVKGRFTISRDNAKNTVYLQMNSLKPEDTAVYYCAAVIEAIDFVPVEYDYWGQGTQVTVSS
notes: also called Nb66; source: E. coli WK6 (pMECS), periplasmic, purified (IMAC, SEC)
B6: Nb B42 (His- and HA-tagged) (VHH)
VHH: QVQLQESGGGLVQAGGSLRLSCAASGRTFSSYAMGWFRQAPGKEREFVAAISWSGGSTYYADSVKGRFTISRDNAKNTVYLQMNSLKPEDTAVYYCAVDQWILEVNAAFQADYWGQGTQVTVSS
notes: also called Nb42; source: E. coli WK6 (pMECS), periplasmic, purified (IMAC, SEC)
B7: Nb B165 (His- and HA-tagged) (VHH)
VHH: QVQLQESGGGLVQAGGSLRLSCAASTRTFSSDAMGWFRQAPGKEREFVAAISISTYYADSVKGRFTISRDNAKNTMYLQMNRLKPEDTAVYYCAVKPFYGGIRYPNEYPYWGQGTQVTVSS
notes: also called Nb165; source: E. coli WK6 (pMECS), periplasmic, purified (IMAC, SEC)
B8: Nb B69 (His- and HA-tagged) (VHH)
VHH: QVQLQESGGGLVQPGGSLRLSCVSSERTFSPYTMAWFRQAPGKERDFVADIRWGDGTTRYADSVKGRFTISRDNAKNTVFLQTNSLTPEDTAVYYCAHKTWYPRSFQAASYDFWGQGTQVTVSS
notes: also called Nb69; source: E. coli WK6 (pMECS), periplasmic, purified (IMAC, SEC)
B9: Nb B91 (His- and HA-tagged) (VHH)
VHH: QVQLQESGGGLVQAGDSLRLSCASSGRTFSSYGVGWFRQAPGKEREFVAAISWNGGSASYADSVKGRFTVSRDNAKNTVYLQMNSLQPEDTADYYCAAKVEALYGTDYFRDYDYWGQGTQVTVSS
notes: also called Nb91; source: E. coli WK6 (pMECS), periplasmic, purified (IMAC, SEC)
B10: Nb B40 (His- and HA-tagged) (VHH)
VHH: QVQLQESGGGLVQAGESLRLSCATTEHANQMYAVGWFRQAPGKEREFVASINWSGTRTEHAESVKGRFTISKINPHDTVYLQMNSLKPEDTAVYACAARYYSGTYTKTDNSNDYDYWGQGTQVTVSS
notes: Detecting nanobody of the final sandwich ELISA; also called Nb40; B40HA; source: E. coli WK6 (pMECS), periplasmic, purified (IMAC, SEC)
B11: Nb B83 (His- and HA-tagged) (VHH)
VHH: QVQLQESGGGLVQPGGSLRLSCAASGSIFSRNDMGWYRQAVGEARILVATITSGGVTTYADSVKGRFTISRDNAKNTVYLQMNSLKPEDTAVYYCNTLTNRRNAYWGQGTQVTVSS
notes: also called Nb83; B83HA; source: E. coli WK6 (pMECS), periplasmic, purified (IMAC, SEC)
B12: Nb B187 (His- and HA-tagged) (VHH)
VHH: QVQLQESGGGLVQAGGSLRLSCAASGRTFSGARMGWFRQAPGKEREFVAAIRWITGSTYYTDSVKGRFTISRDIAKNTQYLQMNSLKPEDTARYYCAAGEYYGGSYSDTEKYDYWGQGTQVTVSS
notes: From an immune alpaca library raised against crude lupine protein extract; also called Nb187; B187HA; source: E. coli WK6 (pMECS), periplasmic, purified (IMAC, SEC)

target: T1, Lup an 1 (Lupinus angustifolius (by the …, UniProt F5B8W3)); assay: ELISA; crude lupine extract (50 μg/mL) coated overnight at 4 °C; Nbs serially diluted in PBS, 1 h at room temperature; detected by mouse anti-His IgG and HRP goat anti-mouse IgG; apparent affinity = concentration at half of the maximum signal; details: one partner purified
T1 construct: Lup an 1, lupin β-conglutin, a 7S seed storage globulin of the vicilin-like proteins; found by LC-MS/MS of the ~55 kDa band immunocaptured from crude lupine extract; UniProt F5B8W3.1; size distribution printed as 55 to 61 kDa; Never purified: it stood in a crude lupine protein extract in every experiment; Seen as a band of ~55 kDa; also called lupin β-conglutin; lupine allergen Lup an 1; source: …
T1 sequence (F5B8W3 31-637): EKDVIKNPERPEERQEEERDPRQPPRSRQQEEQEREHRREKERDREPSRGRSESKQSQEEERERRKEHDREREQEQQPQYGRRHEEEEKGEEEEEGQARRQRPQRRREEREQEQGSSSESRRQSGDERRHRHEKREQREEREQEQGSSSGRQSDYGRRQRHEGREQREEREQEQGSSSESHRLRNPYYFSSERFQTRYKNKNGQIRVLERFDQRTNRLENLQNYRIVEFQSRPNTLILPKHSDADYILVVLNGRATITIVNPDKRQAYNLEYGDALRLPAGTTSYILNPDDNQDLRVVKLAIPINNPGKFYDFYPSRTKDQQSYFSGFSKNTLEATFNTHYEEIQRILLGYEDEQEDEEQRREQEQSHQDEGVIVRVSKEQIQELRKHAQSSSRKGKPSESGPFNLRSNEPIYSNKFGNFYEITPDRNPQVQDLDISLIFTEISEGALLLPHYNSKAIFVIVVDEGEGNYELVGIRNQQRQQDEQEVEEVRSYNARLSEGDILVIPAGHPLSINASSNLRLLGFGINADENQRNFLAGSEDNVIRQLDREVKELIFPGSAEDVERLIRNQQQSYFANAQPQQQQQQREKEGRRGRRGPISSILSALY

EC50	Binder
680 nM	B1
16 nM	B2
45 nM	B3
13 nM	B4
180 nM	B5
24 nM	B6
31 nM	B7
325 nM	B8
9 nM	B9
8 nM	B10
1 nM	B11
14 nM	B12
